In doi:10.1101/2022.05.18.492574:

Target: GyrA14 (UniProt P0AES4)
Experiment: SEC-MALS

stoichiometry N: 2
Substance: GyrA14 (from UniProt P0AES4 363-494) (domain or fragment)
